{
  "source": "patent US7076372",
  "about": "(Takeda / Millennium, dated 2006)",
  "proteins": {"B1": {"name": "MvaS from E. faecalis (HMG-CoA Synthase), full-length with non-cleavable carboxy-terminal six histidine tag, seleno-methionine labeled (enzyme)", "chain": "MTIGIDKISFFVPPYYIDMTALAEARNVDPGKFHIGIGQDQMAVNPISQDIVTFAANAAEAILTKEDKEAIDMVIVGTESSIDESKAAAVVLHRLMGIQPFARSFEIKEACYGATAGLQLAKNHVALHPDKKVLVVAADIAKYGLNSGGEPTQGAGAVAMLVASEPRILALKEDNVMLTQDIYDFWRPTGHPYPMVDGPLSNETYIQSFAQVWDEHKKRTGLDFADYDALAFHIPYTKMGKKALLAKISDQTEAEQERILARYEESIVYSRRVGNLYTGSLYLGLISLLENATTLTAGNQIGLFSYGSGAVAEFFTGELVAGYQNHLQKETHLALLDNRTELSIAEYEAMFAETLDTDIDQTLEDELKYSISAINNTVRSYRNKGHHHHHH", "modifications": "selenomethionine (MSE) in place of methionine, 100% incorporation by mass spectrometry", "notes": "Crystallised as a complex with the small molecule HMG-CoA; There are two MvaS molecules in the asymmetric unit, described as a dimer; Coordinates lack residues 1 and 384-391 (molecule A) and residues 1 and 388-391 (molecule B); also called MvaS Ef"}},
  "target": "the molecule itself",
  "experiment": "X-ray crystal structure, two MvaS molecules in the asymmetric unit",
  "data": [
    {"protein": "B1", "values": [
      {"measurement": "binding result", "result": "binds"}
    ]}
  ]
}
